# Measurements taken from paper PMC6491607, “4-Coumarate 3-hydroxylase in the lignin biosynthesis pathway is a cytosolic ascorbate peroxidase” (Nature Communications, 2019).
# B1: Arabidopsis C3H (4-coumarate 3-hydroxylase; cytosolic ascorbate peroxidase APX1) (Arabidopsis thaliana) (protein)
# chain: MTKNYPTVSEDYKKAVEKCRRKLRGLIAEKNCAPIMVRLAWHSAGTFDCQSRTGGPFGTMRFDAEQAHGANSGIHIALRLLDPIREQFPTISFADFHQLAGVVAVEVTGGPDIPFHPGREDKPQPPPEGRLPDATKGCDHLRDVFAKQMGLSDKDIVALSGAHTLGRCHKDRSGFEGAWTSNPLIFDNSYFKELLSGEKEGLLQLVSDKALLDDPVFRPLVEKYAADEDAFFADYAEAHMKLSELGFADA
# notes: full-length cDNA in pDEST17, N-terminal 6xHis tag kept, E. coli Rosetta, Ni-NTA purified, hemin reconstituted
# Experiments:
# [1] = substrate: O=C1O[C@H]([C@@H](O)CO)C(O)=C1O; test: purified protein; conditions: H2O2 co-substrate, sodium phosphate pH 6, hemin reconstituted
# [2] = substrate: O=C(O)/C=C/c1ccc(O)cc1; test: HPLC of product, Hill fit; assay type: biochemical, Arabidopsis thaliana; conditions: H2O2 co-substrate, ascorbate 4 mM, sodium phosphate pH 6, 30 °C, hemin reconstituted
# [3] = substrate: N[C@@H](Cc1ccc(O)cc1)C(=O)O; test: HPLC of product (L-DOPA), Hill fit; assay type: biochemical, Arabidopsis thaliana; conditions: H2O2 co-substrate, ascorbate 4 mM, sodium phosphate pH 6, 30 °C, hemin reconstituted
protein,measurement,setting,value
B1,K0.5,[1],299 ± 63 µM
same,kcat,[1],181 s–1
same,K0.5,[2],708 ± 154 µM
same,kcat,[2],492 s–1
same,K0.5,[3],653 ± 127 µM
same,kcat,[3],599 s–1
